The values that follow come from patent US20220073608A1.

Test [1] addresses T1, human SEMA4D, full length, on CHO-K1 cells (CHO-K1 hSEMA4D) (human) (UniProt Q92854).
T1 sequence (looked up): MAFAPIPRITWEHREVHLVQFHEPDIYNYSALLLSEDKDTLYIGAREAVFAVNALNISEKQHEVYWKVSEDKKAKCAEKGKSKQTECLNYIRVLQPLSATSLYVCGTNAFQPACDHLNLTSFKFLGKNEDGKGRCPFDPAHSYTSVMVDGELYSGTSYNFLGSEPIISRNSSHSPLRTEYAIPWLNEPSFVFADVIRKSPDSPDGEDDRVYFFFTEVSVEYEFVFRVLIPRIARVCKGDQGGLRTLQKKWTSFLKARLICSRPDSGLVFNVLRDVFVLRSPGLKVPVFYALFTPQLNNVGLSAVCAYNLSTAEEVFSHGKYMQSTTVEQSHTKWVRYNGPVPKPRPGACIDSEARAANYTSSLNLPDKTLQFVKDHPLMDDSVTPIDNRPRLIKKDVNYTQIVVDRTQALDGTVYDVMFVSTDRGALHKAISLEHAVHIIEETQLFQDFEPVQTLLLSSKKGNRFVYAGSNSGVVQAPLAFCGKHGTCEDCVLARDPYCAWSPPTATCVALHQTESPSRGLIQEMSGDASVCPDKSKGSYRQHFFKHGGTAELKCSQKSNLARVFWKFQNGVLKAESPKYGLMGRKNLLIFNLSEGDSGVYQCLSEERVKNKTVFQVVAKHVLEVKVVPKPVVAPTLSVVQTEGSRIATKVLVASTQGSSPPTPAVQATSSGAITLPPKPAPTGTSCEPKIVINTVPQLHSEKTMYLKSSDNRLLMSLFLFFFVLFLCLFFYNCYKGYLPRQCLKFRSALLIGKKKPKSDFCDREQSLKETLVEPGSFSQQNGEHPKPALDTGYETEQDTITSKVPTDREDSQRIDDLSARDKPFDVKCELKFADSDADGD
The test is described as follows: FACS, CHO-K1 hSEMA4D cells; Ab 2.67 nM.

Test [2] deals with mouse SEMA4D, full length, on CHO-K1 cells (CHO-K1 mSEMA4D) (mouse) (UniProt O09126). The test is described as follows: FACS, CHO-K1 mSEMA4D cells; Ab 0.107 nM. On the technique in general: A flow cytometer gives signals particle by particle.
The target is the same in test [3]. The test is described as follows: FACS, CHO-K1 mSEMA4D cells; Ab 13.3 nM.
Test [4] has the same target. The test is described as follows: FACS, CHO-K1 mSEMA4D cells; Ab 0.000853 nM.
Test [5] concerns the target T2, biotinylated hSEMA4D ECD-His (human) (UniProt Q92854).
T2 sequence (chain, biotinylated with Biotin-X-X-NHS at a molar ratio of 8,1; sites not stated): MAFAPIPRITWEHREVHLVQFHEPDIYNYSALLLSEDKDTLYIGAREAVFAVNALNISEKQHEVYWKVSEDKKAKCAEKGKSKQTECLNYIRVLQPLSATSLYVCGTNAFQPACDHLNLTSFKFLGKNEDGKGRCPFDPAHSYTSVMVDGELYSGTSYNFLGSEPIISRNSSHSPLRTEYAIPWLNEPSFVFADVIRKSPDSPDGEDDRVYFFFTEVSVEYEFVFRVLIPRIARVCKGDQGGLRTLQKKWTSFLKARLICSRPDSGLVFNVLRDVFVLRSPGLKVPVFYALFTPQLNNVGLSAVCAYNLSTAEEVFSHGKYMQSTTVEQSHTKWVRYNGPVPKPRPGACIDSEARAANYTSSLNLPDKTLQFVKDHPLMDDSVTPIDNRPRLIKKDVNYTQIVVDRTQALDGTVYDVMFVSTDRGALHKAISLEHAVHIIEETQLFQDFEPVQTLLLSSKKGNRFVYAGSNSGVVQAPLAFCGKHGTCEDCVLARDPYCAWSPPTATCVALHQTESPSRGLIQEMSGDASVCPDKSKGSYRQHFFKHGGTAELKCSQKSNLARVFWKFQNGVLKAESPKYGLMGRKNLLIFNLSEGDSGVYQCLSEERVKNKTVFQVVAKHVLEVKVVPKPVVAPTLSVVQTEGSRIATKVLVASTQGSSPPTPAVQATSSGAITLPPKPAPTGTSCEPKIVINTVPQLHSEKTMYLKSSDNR
The test is described as follows: FACS, blocking of biotinylated hSEMA4D ECD-His binding to 293F hPlexin B1 cells; Ab 2.67 nM.

Test [6] addresses T2, biotinylated hSEMA4D ECD-His (human). The test is described as follows: FACS, blocking of biotinylated hSEMA4D ECD-His binding to 293F hPlexin B1 cells; Ab 333 nM.
In test [7] the target is monkey SEMA4D, full length, on CHO-K1 cells (CHO-K1 cSEMA4D) (monkey). The test is described as follows: FACS, CHO-K1 cSEMA4D cells; Ab 0.00427 nM.
Test [8] concerns the target T1, human SEMA4D, full length, on CHO-K1 cells (CHO-K1 hSEMA4D) (human). The test is described as follows: FACS, CHO-K1 hSEMA4D cells; Ab 13.3 nM.
In test [9] the target is T2, biotinylated hSEMA4D ECD-His (human). The test is described as follows: FACS, blocking of biotinylated hSEMA4D ECD-His binding to 293F hPlexin B1 cells; Ab 0.0213 nM.
Test [10] concerns the target monkey SEMA4D, full length, on CHO-K1 cells (CHO-K1 cSEMA4D) (monkey). The test is described as follows: FACS, CHO-K1 cSEMA4D cells; Ab 0.0213 nM.
The target is the same in test [11]. The test is described as follows: FACS, CHO-K1 cSEMA4D cells; Ab 0.534 nM.
In test [12] the target is mouse SEMA4D, full length, on CHO-K1 cells (CHO-K1 mSEMA4D) (mouse) (UniProt O09126). The test is described as follows: FACS, CHO-K1 mSEMA4D cells; Ab 2.67 nM.
Test [13] deals with T1, human SEMA4D, full length, on CHO-K1 cells (CHO-K1 hSEMA4D) (human). The test is described as follows: FACS, CHO-K1 hSEMA4D cells; Ab 0.000853 nM.
Test [14] deals with monkey SEMA4D, full length, on CHO-K1 cells (CHO-K1 cSEMA4D) (monkey). The test is described as follows: FACS, CHO-K1 cSEMA4D cells; Ab 13.3 nM.
The target of test [15] is hSEMA4D ECD-His (His-tagged human SEMA4D protein extracellular domain, Met22-Arg734) (human) (UniProt Q92854). The test is described as follows: ELISA, coated hSEMA4D ECD-His; Ab 0.0427 nM. (In general: An ELISA detects its analyte on a solid surface through an enzyme-linked reagent.)

Regarding Human IgG control (antibody), the MFI in test [1] was found to be 35.9; in test [2], 24.1; in test [3], 23.8; in test [4], 25; in test [7], 31.6; in test [8], 35.8. Also, the MFI in test [10] is 31.6; in [11], 32.1; in [12] it was 23.9; in [13], 37.2; in test [14], 86.7. The MFI (residual ligand binding) in test [5] was determined as 338; in test [6], 307; in test [9], 359. Further, in test [15], the OD450 nm stood at 0.0754.
On to Mouse IgG control (antibody), for which the MFI in test [1] was determined as 35.6; in [2], 29.8; in test [3] it was 30.3; in [4], 29.8; in test [7], 22.5; in test [8] it was 40.2. The MFI in [10] stood at 23.1; in test [11] it was 24.9; in test [12] it was 30.4; in test [13], 35.5; in test [14] it was 65.6. Besides, the MFI (residual ligand binding) was found to be 470 in [5], 464 in [6] and 468 in test [9].
